Source: the DeepSol protein solubility set

Assay: soluble on expression in E. coli; label from the status in PepcDB or PDB records

| Sequence | soluble on expression in E. coli |
| --- | --- |
| MAQTPAFNKPKVELHVHLDGAIKPETILYFGKKRGIALPADTVEELRNIIGMDKPLSLPGFLAKFDYYMPVIAGCREAIKRIAYEFVEMKAKEGVVYVEVRYSPHLLANSKVDPMPWNQTEGDVTPDDVVDLVNQGLQEGEQAFGIKVRSILCCMRHQPSWSLEVLELCKKYNQKTVVAMDLAGDETIEGSSLFPGHVEAYEGAVKNGIHRTVHAGEVGSPEVVREAVDILKTERVGHGYHTIEDEALYNRLLKENMHFEVCPWSSYLTGAWDPKTTHAVVRFKNDKANYSLNTDDPLIFKSTLDTDYQMTKKDMGFTEEEFKRLNINAAKSSFLPEEEKKELLERLYREYQ | soluble |
| MARALADLSVNLQVPRVVPSPDSDSDTDLEDPSPRRSAGGLHRSQVIHSGHFMVSSPHSDSLTRRRDQEGPVGLADFGPRSIDPTLTHLFECLSLAYSGKLVSPKWKNFKGLKLLCRDKIRLNNAIWRAWYIQYVQRRKSPVCGFVTPLQGSEADEHRKPEAVILEGNYWKRRIEVVMREYHKWRIYYKKRVSGTDTCRPWVLRVLEGIARPHPNPYL | soluble |
| MARIIRRPLNLTAAVRFRLSPLSPFSGNSGSINSETTSWSELIRVPSLVEGCDYKHWLVLMKPPNGYPTRNHIVQSFVETLAMALGSEEEAKRSIYSVSTKYYYAFGCRIHEPLTYKIRSLPDVKWVLPDSFIVDGDNRYGGEPFVDGEVVPYDEKYHADWLRDQTDEDAKSGVVKKKHRRKRKKKLI | soluble |
| MARIRVQFICQNCGTVHSRWAGKCNSCGEWNSLIEENANSGIGTGPKQNVHKGRVVALTSLSGNIEDAPRIHSGIAELDRVTGGGFVRGSVLLVGGDPGIGKSTLLTQTAAALSRKGHHVIYVSGEEAVAQICLRAQRLDAANTKVKLAAETNVEDILATLSEHKNLDMVIIDSIQTLWSDAADSAPGTVTQVRISAQAMIRFAKKTGAAVVLVGHVTKEGQIAGPRVVEHMVDAVLYFEGEGGHHYRILRTVKNRFGPTDEIGVFEMSDKGLREVINPSELFLGERNEKAPGAAVFAGMEGTRPILVEIQALVAPSSLGTPRRAVVGWDGNRLSMILAVLEAHCGVRFGQHDVYLNVAGGYRISEPAADLAVAAALVSSLTNIPLPTEYVYFGEISLSGAIRAVSHSAQRINEAQKLGFQGSVQPTTTTKMIKLPTFQQKTFSELSELIAALATGK | not soluble |
| MASATTSSKNGKPLVVVYGDYKCPYCKELDEKVMPKLRKNYIDNHKVEYQFVNLAFLGKDSIVGSRASHAVLMYAPKSFLDFQKQLFAAQQDENKEWLTKELLDKHIKQLHLDKETENKIIKDYKTKDSKSWKAAEKDKKIAKDNHIKTVPTAFINGEKVEDPYDYESYEKLLKDKIKLEHHHHHH | soluble |
| MASDEGKLFVGGLSFDTNEQSLEQVFSKYGQISEVVVVKDRETQRSRGFGFVTFENIDDAKDAMMAMNGKSVDGRQIRVDQAGKSSDNR | soluble |
| MASDESMVPYYQWNFAPVVRGIARTQARVEVLRDGYTVSNELVPSGPFELANLPLGGGSGELKVIIHESDGTKQVFTVPYDTPAVALRKG | soluble |
| MASDWRRQSTSRGIPNEGQNDEKGKPLIGRSFLLEIENRILRTNVAEGLHISGATIIDSFDDASPQCVISDHPMAQKLEKAKKDDPLFKNEKMLKIMPALLRQAVNRNIKVRTPERFLNQMNTWLDRQGKTTSATTSNSTIRGKPSFGRENSAKIERTTPRLVPRMPRVSSDQTSSRPKEERCFLRIDVPGKRPEIRNVSKESFSIVYSGRDTGFSIFKAAESSLVERRQREYDSFLKGKYEPSKKTFKFDERDNYCQFCQKTILGDRKDHERTDEHRNKARTQGITQTMERIVLNARLRAERQEAALKRNQRKSRESVMFVEKSKRANVEYEYGENEIKANWLMLKANTVEKTTEKTSILSPRRRQKRMRSLSSQGDI | not soluble |
| MASETIHFSFANADVYIVARSPNNQNGTGDDTMSYSAKSFSALINAMRADGITRLEQLARQPFRNAQGFWSAEVKK | not soluble |
| MASEVQAERADVVIVGAGHGGAQAAIALRQNGFEGRVLVIGREPEIPYERPPLSKEYLAREKTFERICIRPAQFWEDKAVEMKLGAEVVSLDPAAHTVKLGDGSAIEYGKLIWATGGDPRRLSCVGADLAGVHAVRTKEDADRLMAELDAGAKNAVVIGGGYIGLEAAAVLTKFGVNVTLLEALPRVLARVAGEALSEFYQAEHRAHGVDLRTGAAMDCIEGDGTKVTGVRMQDGSVIPADIVIVGIGIVPCVGALISAGASGGNGVDVDEFCRTSLTDVYAIGDCAAHANDFADGAVIRLESVQNANDMATAAAKDICGAPVPYKATPWFWSNQYDLKLQTVGLSTGHDNAVLRGDPATRSFSVVYLKGGKVVALDCVNMVKDYVQGKKLVEARAQIAPEQLADAGVPLKEMLA | soluble |
| MASGQDKTHIDYAYELDITVKPDSRVPVFNREFATFTGAGVPLFSLGGGPIRYALAEVLAKFHARRGYYVVETPIIASTELFKVSGHIEFYRNNMYLFDIEGHEFAVKPMNCPYHILLFLNEVAKHRSKLPLPFKVFEFGRVHRYEPSGSIYGLLRVRGFTQDDAHIIVPGGRVIDVVYDVFEEMKLVLERLFKLGVSSETFKVRLSMSDKSLIGKEFMGSKEEWEGAEEALREAASRINEKYGIDIVELEGEAAFYGPKLDFIMMVEESGVSKEWQMGTIQFDFNLPRRFRLYDVVREEFGIEEVYIIHRALLGSIERFLGVYLEHRRGRMPFTLAPIQFAVIAVKTGGEVDREIEDLASSIAKGLLDKGFRVAVKGSSKTGLSSDVRHIESTAKPAVNVFIGAKEVREKVLDVRVFDLESMKRRRLAIAYGDAADAVENLAAVAEELESPVRSLSGQAPRIPADFSFML | soluble |
| MASISRARQVELLLVADASMARKYGRGLQHYLLTLASIANRLYSHASIENHIRLAVVKVVVLGDKDKSLEVSKNAATTLKNFCKWQHQHNQLGDDHEEHYDAAILFTREDLCGHHSCDTLGMADVGTICSPERSCAVIEDDGLHAAFTVAHEIGHLLGLSHDDSKFCEETFGSTEDKRLMSSILTSIDASKPWSKCTSATITEFLDDGHGNCLLDLPRKQI | soluble |
| MASKPLQFVVVERKLNVGKNAGKVMQIARPTGRHRVDFRSFCERVSKSTTFNRQEVEAVLNYATEIAKDIVSNGDIVEFGDLGTLMPSFKSKAVEQGVKFNANVHIEKPVVLFQPSKKYFTLTDVSYEQTTARPKKGTKPAPKPDTGSGGNSGEGI | not soluble |
| MASKRALVILAKGAEEMETVIPVDVMRRAGIKVTVAGLAGKDPVQCSRDVVICPDASLEDAKKEGPYDVVVLPGGNLGAQNLSESAAVKEILKEQENRKGLIAAICAGPTALLAHEIGFGSKVTTHPLARDKMMNGGHYTYSENRVEKDGLILTSRGPGTSFEFALAIVEALNGKEVAAQVKAPLVLKDLEHHHHHH | soluble |
| MASLSYPKTTMQIQLGANLKPYHTFGIEQLAAQLVVAESIDDLKALYCSAEWASLPKLIIGKGSNMLFTCHYTGMIVVNRLNGIEHQQDDDYHRLHVAGGEDWPSLVSWCVEQGIGGLENLALIPGCAGSAPIQNIGAYGVEFKDVCDYVEYLCLETGTVKRLTMEECQFGYRDSIFKHQLYQKAVVTAVGLKFAKAWQPIIQYGPLKDLSSDCAIHDVYQRVCATRMEKLPDPAVMGNAGSFFKNPVISQQAFARLQIEHPDVVAYPAEQGVKVAAGWLIDQAGLKGHQIGGAKVHPKQALVIVNTGDASAQDVLMLAADIQQRVFNCYGIELEHEVRFIGESEETNLKQWMSEQA | soluble |
| MASNRGQLNHELSKLFNELWDADQNRMKSGKDYRISLQGKAGYVPAGSNQARDSASFPLFQFVDEEKLKSRKTFATFISLLDNYEMDTGVAEVVTPEEIAENNNFLDAILETKVMKMAHDYLVRKNQAKPTRNDFKVQLYNIWFQLYSRAPGSRPDSCGFEHVFVGESKRGQEMMGLHNWVQFYLQEKRKNIDYKGYVARQNKSRPDEDDQVLNLQFNWKEMVKPVGSSFIGVSPEFEFALYTIVFLASQEKMSREVVRLEEYELQIVVNRHGRYIGTAYPVLLSTNNPDLY | soluble |
| MASPRELTQNPLKKIFMPYSNGRPALHASQRGVCMTNCPTLIVMVGLPARGKTYISKKLTRYLNFIGVPTREFNVGQYRRDMVKTYKSFEFFLPDNEEGLKIRKQCALAALNDVRKFLSEEGGHVAVFDATNTTRERRAMIFNFGEQNGYKTFFVESICVDPEVIAANIVQVKLGSPDYVNRDSDEATEDFMRRIECYENSYESLDEEQDRDLSYIKIMDVGQSYVVNRVADHIQSRIVYYLMNIHVTPRSIYLCRAGESELNLKGRIGGDPGLSPRGREFSKHLAQFISDQNIKDLKVFTSQMKRTIQTAEALSVPYEQFKVLNEIDAGVCEEMTYEEIQDHYPLEFALRDQDKYRYRYPKGESYEDLVQRLEPVIMELERQENVLVICHQAVMRCLLAYFLDKAAEELPYLKCPLHTVLKLTPVAYGCKVESIFLNVAAVNTHRDRPQNVDISRPSEEALVTVPAHQ | soluble |
| MASQADAQELAALRALSASIGLNPHMTQAAGGNTSLKAGDTLWIKASGTWLKDALSDDIMVPVAMAPLLEAVEEGDPAADKPQAFAINELNPRGLRPSIETTVHALMPQRVVLHVHCVDTISLAVQADGEAEVARRLGGIEWAYVPYCRPGLPLARGISEKLRPNVDVLILGNHGLVVAADTVAEAQRLLHRVRSLLARPARATAAPDIAALTALAADSAYRLPADLEAHAVALDPQSRRMAEAGSLYPDHVIFLGQGSVVAKPGENAAGVATRLGAAPVAILFPGAGVLVRGDASAGADAMQRCLADVTARVDVAARLNYLTAAENDELVNWDAEQYRQKLNATGGLEHHHHHH | not soluble |
| MASQLLINDSKYGFLKELGLTENNAGVFHGKWAASGQVVQSFAPANNSPIANVQNGNVQDYEIAISEAKKAYNDWCEVPAPRRGEIVRQIGDKLRTQLQNLGKLVSLEMGKISAEGVGEVQEYVDICDYATGLSRSLEGKIFPSERPGHALLEQWNPLGVVGVISAFNFPCAVYGWNNALALVTGNSVVWKPAPSTPLTAIAVTKLVEEVLVANNVNPALCSLVCGEGDVGQALVKDKRVNLVSFTGSSEIGKIVGQQVQARFGKLLLELGGNNAIIVNEDADLNMVVPATVFAAVGTAGQRCTTTRRLIVHDKVYDQVLERLKKAYAQFESRIGCPLDSNTIIGPLHNQQAVGKYKASVAEAVASGGKIEYGGKVLERDGNFVLPTIVTGLKHDSPVVLRETFAPILYVLKFSTLEEAIAINNEVDQGLSSSLFTTNIQNVFKWMGPKGSDCGIVNVNIPTSGAEIGGAFGGEKETGGGRESGSDSWRQYMRRSTCTINYSKELPLAQGIKFE | not soluble |
| MASVASCDSRPSSDELPGDPSSQEEDEDYDFEDRVSDSGSYSSASSDYDDLEPEWLDSVQKNGELFYLELSEDEEESLLPETPTVNHVRFSENEIIIEDDYKERKKYEPKLKQFTKILRRKRLLPKRCNKKNSNDNGPVSILKHQSNQKTGVIVQQRYKDVNVYVNPKKLTVIKAKEQLKLLEVLVGIIHQTKWSWRRTGKQGDGERLVVHGLLPGGSAMKSGQVLIGDVLVAVNDVDVTTENIERVLSCIPGPMQVKLTFENAYDVKRETSHPRQKKTQSNTSDLVKLLWGEEVEGIQQSGLNTPHIIMYLTLQLDSETSKEEQEILYHYPMSEASQKLKSVRGIFLTLCDMLENVTGTQVTSSSLLLNGKQIHVAYWKESDKLLLIGLPAEEIELPSSAHTHGERN | soluble |
